Patent US20250163166A1 (REGENECORE BIOTECH, published 2025)

What was measured:
human FCγRIIIa receptor [1] = molecular target: T1, human FCγRIIIa receptor (human, UniProt P08637 17-208, limits assumed); assay: BLI; Ratio against the hIgG (hIgG1) control, fits KD(hIgG)/KD(sample)
T1 construct: Used in solution as the 'antigen' in BLI; also called FcγIIIa receptor
Protocol: (§1) (3) Preparation of antigen working solution: 200 nM antigen (FCγRIIIa) in SD buffer was first prepared at and then serially diluted in 2 folds to prepare a total of 5 concentration gradients, in addition to which a zero concentration was prepared.
(§2) (11) Data analysis: related constants, such as KD, Kon, Koff, X2, Full R2 and the like were calculated in Data Analysis software.
(§3) In the examples of the present application, the modified bispecific antibody was subjected to BLI test to determine the affinity of the modified bispecific antibody to human FCγRIIIa.

human FCγRIIIa receptor [2] = molecular target: T1, human FCγRIIIa receptor; assay: BLI (Octet 96), antibody loaded on sensor, FCγRIIIa 200 nM and 2-fold dilutions in solution
Protocol: as §1, §2, §3

T1 sequence (P08637 17-208 limits assumed): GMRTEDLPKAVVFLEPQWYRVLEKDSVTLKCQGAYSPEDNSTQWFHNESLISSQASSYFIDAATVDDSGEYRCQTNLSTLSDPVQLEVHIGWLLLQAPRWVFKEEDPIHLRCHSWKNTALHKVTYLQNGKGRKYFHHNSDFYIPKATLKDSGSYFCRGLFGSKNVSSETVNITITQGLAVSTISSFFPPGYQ

Binder	Ratio (human FCγRIIIa receptor [1])	Kd (human FCγRIIIa receptor [2]) [nM]
bispecific antibody BM#1 against CD33 and CD123 (bispecific antibody, human IgG1, VHH-Fc heterodimer) chain 1: QVQLVESGGGSVQAGGSLRLSCAASGYTYSSTCIGWFRQAPGKDREGVAFAYTGGGVTYADSVKGRFTISQDNAKNTVHLIMNSLKPEDTAMYYCAAKTRGGCWAAAAFYNYWGQGTQVTVSSEPKSCDKTHTCPPCPAPELLGGPSVFLFPPKPKDTLMISRTPEVTCVVVDVSHEDPEVKFNWYVDGVEVHNAKTKPREEQYNSTYRVVSVLTVLHQDWLNGKEYKCKVSNKALPAPIEKTISKAKGQPREPQVYTLPPSRDELTKNQVSLWCLVKGFYPSDIAVEWESNGQPENNYKTTPPVLVSDGSFTLYSKLTVDKSRWQQGNVFSCSVMHEALHNHYTQKSLSLSPGK chain 2: not shown	1.29	68.9
bispecific antibody BM#3 against CD33 and CD123 (bispecific antibody, human IgG1, VHH-Fc heterodimer; also called BM-RT2831-#3) chain 1: QVQLVESGGGSVQAGGSLRLSCAASGYTYSSTCIGWFRQAPGKDREGVAFAYTGGGVTYADSVKGRFTISQDNAKNTVHLIMNSLKPEDTAMYYCAAKTRGGCWAAAAFYNYWGQGTQVTVSSEPKSCDKTHTCPPCPAPELLGGPSVFLFPPKPKDTLMISRTPEVTCVVVDVSHEDPEVKFNWYVDGVEVHNAKTKPREEQYNSTYRVVSVLTVLHQDWLNGKEYKCKVSNKALPAPIEKTISKAKGQPREPQVYTLPPSRDELTKNQVSLVCLVKGFYPSDIAVEWESNGQPENNYKTTPPVLVSDGSFTLYSKLTVDKSRWQQGNVFSCSVMHEALHNHYTQKSLSLSPGK chain 2: not shown	1	88.2
bispecific antibody BM#2 against CD33 and CD123 (bispecific antibody, human IgG1, VHH-Fc heterodimer) chain 1: QVQLVESGGGSVQAGGSLRLSCAASGYTYSSTCIGWFRQAPGKDREGVAFAYTGGGVTYADSVKGRFTISQDNAKNTVHLIMNSLKPEDTAMYYCAAKTRGGCWAAAAFYNYWGQGTQVTVSSEPKSCDKTHTCPPCPAPELLGGPSVFLFPPKPKDTLMISRTPEVTCVVVDVSHEDPEVKFNWYVDGVEVHNAKTKPREEQYNSTYRVVSVLTVLHQDWLNGKEYKCKVSNKALPAPIEKTISKAKGQPREPQVYTLPPSRDKLTKNQVSLWCLVKGFYPSDIAVEWESNGQPENNYKTTPPVLKSDGSFFLYSKLTVDKSRWQQGNVFSCSVMHEALHNHYTQKSLSLSPGK chain 2: not shown	1.12	79.1
bispecific antibody BM#12 against CD33 and CD123 (bispecific antibody, human IgG1, VHH-Fc heterodimer) chain 1: QVQLVESGGGSVQAGGSLRLSCAASGYTYSSTCIGWFRQAPGKDREGVAFAYTGGGVTYADSVKGRFTISQDNAKNTVHLIMNSLKPEDTAMYYCAAKTRGGCWAAAAFYNYWGQGTQVTVSSEPKSCDKTHTCPPCPAPELLGGPSVFLFPPKPKDTLMISRTPEVTCVVVDVSHEDPEVKFNWYVDGVEVHNAKTKPREEQYNSTYRVVSVLTVLHQDWLNGKEYKCKVSNKALPAPIEKTISKAKGQPREPQVYTLPPSRDELTKNQVSLWCLVEGFYPSDIAVEWESNGQPENNYKTTPPVLDSDGSFFLYSDLTVDKSRWQQGNVFSCSVMHEALHNHYTQKSLSLSPGK chain 2: not shown	1.65	53.8
bispecific antibody BM#4 against CD33 and CD123 (bispecific antibody, human IgG1, VHH-Fc heterodimer; also called BM-RT2831-#4) chain 1: QVQLVESGGGSVQAGGSLRLSCAASGYTYSSTCIGWFRQAPGKDREGVAFAYTGGGVTYADSVKGRFTISQDNAKNTVHLIMNSLKPEDTAMYYCAAKTRGGCWAAAAFYNYWGQGTQVTVSSEPKSCDKTHTCPPCPAPELLGGPSVFLFPPKPKDTLMISRTPEVTCVVVDVSHEDPEVKFNWYVDGVEVHNAKTKPREEQYNSTYRVVSVLTVLHQDWLNGKEYKCKVSNKALPAPIEKTISKAKGQPREPQVYTLPPSRDKLTKNQVSLVCLVKGFYPSDIAVEWESNGQPENNYKTTPPVLKSDGSFFLYSKLTVDKSRWQQGNVFSCSVMHEALHNHYTQKSLSLSPGK chain 2: QVQLVESGGGSVQAGGSLKLSCAASRFIFSRCGMGWFRQAPGKERELVSTISGDGTTFYADSVKGRFTISQHNAATTLYLQMNSLKLEDTAVYYCAADCYNRKYWGQGTQVTVSSEPKSCDKTHTCPPCPAPELLGGPSVFLFPPKPKDTLMISRTPEVTCVVVDVSHEDPEVKFNWYVDGVEVHNAKTKPREEQYNSTYRVVSVLTVLHQDWLNGKEYKCKVSNKALPAPIEKTISKAKGQPREPQVYTLPPSRDELTKNQVSLTCLVEGFYPSDIAVEWESNGQPENNYKTTPPVLDSDGSFFLASDLTVDKSRWQQGNVFSCSVMHEALHNHYTQKSLSLSPGK	1.19	74.2

Further lines, results first:

Ratio (human FCγRIIIa receptor [1])	Kd (human FCγRIIIa receptor [2]) [nM]	Binder
1.42	62.5	bispecific antibody BM#13 against CD33 and CD123 (bispecific antibody, human IgG1, VHH-Fc heterodimer) chain 1: not shown chain 2: QVQLVESGGGSVQAGGSLKLSCAASRFIFSRCGMGWFRQAPGKERELVSTISGDGTTFYADSVKGRFTISQHNAATTLYLQMNSLKLEDTAVYYCAADCYNRKYWGQGTQVTVSSEPKSCDKTHTCPPCPAPELLGGPSVFLFPPKPKDTLMISRTPEVTCVVVDVSHEDPEVKFNWYVDGVEVHNAKTKPREEQYNSTYRVVSVLTVLHQDWLNGKEYKCKVSNKALPAPIEKTISKAKGQPREPQVYTLPPSRDELTKNQVSLTCLVKGFYPSDIAVEWESNGQPENNYKTTPPVLVSDGSFTLASKLTVDKSRWQQGNVFSCSVMHEALHNHYTQKSLSLSPGK
1.03	86.3	bispecific antibody BM#22 against CD33 and CD123 (bispecific antibody, human IgG1, VHH-Fc heterodimer; also called BM-RT2831-#22) chain 1: QVQLVESGGGSVQAGGSLRLSCAASGYTYSSTCIGWFRQAPGKDREGVAFAYTGGGVTYADSVKGRFTISQDNAKNTVHLIMNSLKPEDTAMYYCAAKTRGGCWAAAAFYNYWGQGTQVTVSSEPKSCDKTHTCPPCPAPELLGGPSVFLFPPKPKDTLMISRTPEVTCVVVDVSHEDPEVKFNWYVDGVEVHNAKTKPREEQYNSTYRVVSVLTVLHQDWLNGKEYKCKVSNKALPAPIEKTISKAKGQPREPQVYTLPPSRDKLTKNQVSLTCLVKGFYPSDIAVEWESNGQPENNYKTTPPVLVSDGSFTLYSKLTVDKSRWQQGNVFSCSVMHEALHNHYTQKSLSLSPGK chain 2: not shown
1.04	85.4	bispecific antibody BM#21 against CD33 and CD123 (bispecific antibody, human IgG1, VHH-Fc heterodimer; also called BM-RT2831-#21) chain 1: QVQLVESGGGSVQAGGSLRLSCAASGYTYSSTCIGWFRQAPGKDREGVAFAYTGGGVTYADSVKGRFTISQDNAKNTVHLIMNSLKPEDTAMYYCAAKTRGGCWAAAAFYNYWGQGTQVTVSSEPKSCDKTHTCPPCPAPELLGGPSVFLFPPKPKDTLMISRTPEVTCVVVDVSHEDPEVKFNWYVDGVEVHNAKTKPREEQYNSTYRVVSVLTVLHQDWLNGKEYKCKVSNKALPAPIEKTISKAKGQPREPQVYTLPPSRKELTKNQVSLTCLVKGFYPSDIAVEWESNGQPENNYKTTPPVLVSDGSFTLYSKLTVDKSRWQQGNVFSCSVMHEALHNHYTQKSLSLSPGK chain 2: not shown
1.08	82.1	bispecific antibody BM#23 against CD33 and CD123 (bispecific antibody, human IgG1, VHH-Fc heterodimer; also called BM-RT2831-#23) chain 1: QVQLVESGGGSVQAGGSLRLSCAASGYTYSSTCIGWFRQAPGKDREGVAFAYTGGGVTYADSVKGRFTISQDNAKNTVHLIMNSLKPEDTAMYYCAAKTRGGCWAAAAFYNYWGQGTQVTVSSEPKSCDKTHTCPPCPAPELLGGPSVFLFPPKPKDTLMISRTPEVTCVVVDVSHEDPEVKFNWYVDGVEVHNAKTKPREEQYNSTYRVVSVLTVLHQDWLNGKEYKCKVSNKALPAPIEKTISKAKGQPREPQVYTLPPSRDDLTKNQVSLTCLVKGFYPSDIAVEWESNGQPENNYKTTPPVLVSDGSFTLYSKLTVDKSRWQQGNVFSCSVMHEALHNHYTQKSLSLSPGK chain 2: not shown
1.06	83.3	bispecific antibody BM#24 against CD33 and CD123 (bispecific antibody, human IgG1, VHH-Fc heterodimer; also called BM-RT2831-#24) chain 1: QVQLVESGGGSVQAGGSLRLSCAASGYTYSSTCIGWFRQAPGKDREGVAFAYTGGGVTYADSVKGRFTISQDNAKNTVHLIMNSLKPEDTAMYYCAAKTRGGCWAAAAFYNYWGQGTQVTVSSEPKSCDKTHTCPPCPAPELLGGPSVFLFPPKPKDTLMISRTPEVTCVVVDVSHEDPEVKFNWYVDGVEVHNAKTKPREEQYNSTYRVVSVLTVLHQDWLNGKEYKCKVSNKALPAPIEKTISKAKGQPREPQVYTLPPSRKDLTKNQVSLTCLVKGFYPSDIAVEWESNGQPENNYKTTPPVLDSDGSFFLASKLTVDKSRWQQGNVFSCSVMHEALHNHYTQKSLSLSPGK chain 2: QVQLVESGGGSVQAGGSLKLSCAASRFIFSRCGMGWFRQAPGKERELVSTISGDGTTFYADSVKGRFTISQHNAATTLYLQMNSLKLEDTAVYYCAADCYNRKYWGQGTQVTVSSEPKSCDKTHTCPPCPAPELLGGPSVFLFPPKPKDTLMISRTPEVTCVVVDVSHEDPEVKFNWYVDGVEVHNAKTKPREEQYNSTYRVVSVLTVLHQDWLNGKEYKCKVSNKALPAPIEKTISKAKGQPREPQVYTLPPSRDELTKNQVSLTCLVYGFYPSDIAVEWESNGQPENNYKTTPPVLDSDGSFFLYSVLTVDKSRWQQGNVFSCSVMHEALHNHYTQESLSLSPGK
1.61	55.2	bispecific antibody BM#14 against CD33 and CD123 (bispecific antibody, human IgG1, VHH-Fc heterodimer) chain 1: QVQLVESGGGSVQAGGSLRLSCAASGYTYSSTCIGWFRQAPGKDREGVAFAYTGGGVTYADSVKGRFTISQDNAKNTVHLIMNSLKPEDTAMYYCAAKTRGGCWAAAAFYNYWGQGTQVTVSSEPKSCDKTHTCPPCPAPELLGGPSVFLFPPKPKDTLMISRTPEVTCVVVDVSHEDPEVKFNWYVDGVEVHNAKTKPREEQYNSTYRVVSVLTVLHQDWLNGKEYKCKVSNKALPAPIEKTISKAKGQPREPQVYTLPPSRDELTKNQVSLVCLVEGFYPSDIAVEWESNGQPENNYKTTPPVLDSDGSFFLYSDLTVDKSRWQQGNVFSCSVMHEALHNHYTQKSLSLSPGK chain 2: QVQLVESGGGSVQAGGSLKLSCAASRFIFSRCGMGWFRQAPGKERELVSTISGDGTTFYADSVKGRFTISQHNAATTLYLQMNSLKLEDTAVYYCAADCYNRKYWGQGTQVTVSSEPKSCDKTHTCPPCPAPELLGGPSVFLFPPKPKDTLMISRTPEVTCVVVDVSHEDPEVKFNWYVDGVEVHNAKTKPREEQYNSTYRVVSVLTVLHQDWLNGKEYKCKVSNKALPAPIEKTISKAKGQPREPQVYTLPPSRDKLTKNQVSLTCLVKGFYPSDIAVEWESNGQPENNYKTTPPVLKSDGSFFLASKLTVDKSRWQQGNVFSCSVMHEALHNHYTQKSLSLSPGK
